Target: 2081/anti-NF IgG, polyclonal antibody generated against the SEVNF peptide
Assay: ORIGEN ECL competition against biotinylated-SEVNF; reference SEVNF

fold less effective in competition than SEVNF: 100 fold
Binder: SEVNL [SEVNL peptide]
